Data: patent publication US20070014786A1 (RINAT NEUROSCIENCE, published 2007)

Key:
human trkC [1] = biological target: T1, human trkC (human, UniProt Q16288 32-429, limits assumed); test: BIAcore (SPR); format not stated; human trkC
T1 construct: also called htrkC

rat trkC = rat trkC (rat, UniProt Q03351 32-429, limits assumed); test: BIAcore (SPR); format not stated; rat trkC
human trkC [2] = biological target: T1, human trkC; test: BIAcore (SPR); format not stated

Kd (human trkC [1]) [nM]	Kd (rat trkC) [nM]	Kd (human trkC [2]) [nM]	Binder
~0.28	~19		humanized anti-trkC agonist antibody A5 (antibody, V domains shown) VH: QVQLVQSGAEVKKPGASVKVSCKASGYTFTSYRIHWVRQAPGQGLEWMGEIYPSNARTNYNEKFKSRVTMTRDTSTSTVYMELSSLRSEDTAVYYCARKYYYGNTRRSWYFDVWGQGTTVTVS VL: DIQMTQSPSSLSASVGDRVTITCRASESIDNYGISFLAWYQQKPGKAPKLLIYAASNRGSGVPSRFSGSGSGTDFTFTISSLQPEDIATYYCQQSKTVPRTFGQGTKLEIKR
		~40	mouse anti-trkC agonist monoclonal antibody 2256 (antibody, V domains shown) VH: QVQLQQPGAELVKPGASVKLSCKASGYTFTSYWMHWVKQRPGQGLEWIGEIYPSNGRTNYNEKFKSKATLTVDKSSSTAYMQLSSLTSEDSAVYYCARKYYYGNSYRSWYFDVWGAGTTLTVS VL: not shown
